# Laboratory results from publication PMC10786891, “Massively parallel profiling of RNA-targeting CRISPR-Cas13d”.
# T1: EsCas13d, nuclease-dead (Eubacterium siraeum, UniProt B0MS50, R295A;H300A;R849A;H854A)
# T1 sequence: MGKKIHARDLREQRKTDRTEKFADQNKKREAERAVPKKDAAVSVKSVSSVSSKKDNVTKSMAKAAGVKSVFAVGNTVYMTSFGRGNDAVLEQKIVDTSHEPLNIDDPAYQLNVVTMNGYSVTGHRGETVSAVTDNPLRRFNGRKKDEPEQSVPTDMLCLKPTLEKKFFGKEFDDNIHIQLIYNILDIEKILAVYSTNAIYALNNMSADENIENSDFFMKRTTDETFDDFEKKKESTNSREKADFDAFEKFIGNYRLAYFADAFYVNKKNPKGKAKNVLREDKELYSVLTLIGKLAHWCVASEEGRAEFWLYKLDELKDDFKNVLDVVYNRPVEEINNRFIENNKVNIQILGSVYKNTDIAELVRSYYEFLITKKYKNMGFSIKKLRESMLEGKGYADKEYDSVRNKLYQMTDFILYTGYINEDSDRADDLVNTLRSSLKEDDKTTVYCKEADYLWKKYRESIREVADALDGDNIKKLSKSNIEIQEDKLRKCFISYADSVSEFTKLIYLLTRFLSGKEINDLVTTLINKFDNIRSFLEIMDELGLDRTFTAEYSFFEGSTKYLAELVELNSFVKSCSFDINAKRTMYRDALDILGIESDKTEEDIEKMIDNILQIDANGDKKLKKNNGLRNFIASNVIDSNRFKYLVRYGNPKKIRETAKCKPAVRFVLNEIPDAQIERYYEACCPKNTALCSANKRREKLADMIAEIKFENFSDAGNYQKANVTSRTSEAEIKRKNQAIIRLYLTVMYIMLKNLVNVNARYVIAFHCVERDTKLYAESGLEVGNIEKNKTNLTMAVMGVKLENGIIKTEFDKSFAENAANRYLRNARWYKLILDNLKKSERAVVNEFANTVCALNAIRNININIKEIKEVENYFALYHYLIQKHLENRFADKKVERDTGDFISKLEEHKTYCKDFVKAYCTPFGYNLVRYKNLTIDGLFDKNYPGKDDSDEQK
# Target: T1, EsCas13d, nuclease-dead
# Experiment: crRNA (strand 1, pre-loaded); Mg2+; 40 mM Tris-HCl pH 7.5, 150 mM NaCl, 6 mM MgCl2, 1 mM DTT, 0.1% Tween-20, 0.2 mg/ml BSA; 25 C; 10 min per concentration, then washed
# Settings: tags: His6-TwinStrep-SUMO cleaved; N-terminal SNAP kept (SNAP-Surface 488); label: 3' end held by stalled T7 RNA polymerase
row,Binder,Kd [nM]
1,"target 1 insU 3' of 20,insG 3' of 10 (mixed) RNA 1: CACCCGUGCAAAAAUGCAGGGGUCUAAAACUGAGCGGAUAACCUCUCUAUGG RNA 2: GGGAAUGGAUCCACAUCUACGAAUUCGUACCAUUAGAGAGGUUGAUCCGCUCACCGAGAUCGGAAGAGCACACGU",29 ± 6
2,"target 1 insA 3' of 19,insU 3' of 4 (mixed) RNA 1: CACCCGUGCAAAAAUGCAGGGGUCUAAAACUGAGCGGAUAACCUCUCUAUGG RNA 2: GGGAAUGGAUCCACAUCUACGAAUUCGUACCAUAAGAGAGGUUAUCCGCUUCACCGAGAUCGGAAGAGCACACGU",17.9 ± 0.9
3,"target 1 A1U,A9G (mixed) RNA 1: CACCCGUGCAAAAAUGCAGGGGUCUAAAACUGAGCGGAUAACCUCUCUAUGG RNA 2: GGGAAUGGAUCCACAUCUACGAAUUCGUACCAUAGAGAGGUUGUCCGCUCUCCGAGAUCGGAAGAGCACACGU",13.1 ± 1.3
4,"target 1 A1G,C4U (mixed) RNA 1: CACCCGUGCAAAAAUGCAGGGGUCUAAAACUGAGCGGAUAACCUCUCUAUGG RNA 2: GGGAAUGGAUCCACAUCUACGAAUUCGUACCAUAGAGAGGUUAUCCGUUCGCCGAGAUCGGAAGAGCACACGU",31 ± 5
5,"target 1 A9U,U10G (mixed) RNA 1: CACCCGUGCAAAAAUGCAGGGGUCUAAAACUGAGCGGAUAACCUCUCUAUGG RNA 2: GGGAAUGGAUCCACAUCUACGAAUUCGUACCAUAGAGAGGUGUUCCGCUCACCGAGAUCGGAAGAGCACACGU",21.7 ± 2.1
6,"target 1 insC 3' of 13,insC 3' of 10 (mixed) RNA 1: CACCCGUGCAAAAAUGCAGGGGUCUAAAACUGAGCGGAUAACCUCUCUAUGG RNA 2: GGGAAUGGAUCCACAUCUACGAAUUCGUACCAUAGAGAGCGUUCAUCCGCUCACCGAGAUCGGAAGAGCACACGU",12.9 ± 1.3
7,"target 1 A1G,A9G (mixed) RNA 1: CACCCGUGCAAAAAUGCAGGGGUCUAAAACUGAGCGGAUAACCUCUCUAUGG RNA 2: GGGAAUGGAUCCACAUCUACGAAUUCGUACCAUAGAGAGGUUGUCCGCUCGCCGAGAUCGGAAGAGCACACGU",12.6 ± 0.5
8,"target 1 G5A,U8C (mixed) RNA 1: CACCCGUGCAAAAAUGCAGGGGUCUAAAACUGAGCGGAUAACCUCUCUAUGG RNA 2: GGGAAUGGAUCCACAUCUACGAAUUCGUACCAUAGAGAGGUUACCCACUCACCGAGAUCGGAAGAGCACACGU",15.3 ± 0.7
9,"target 1 G13A,C21A (mixed) RNA 1: CACCCGUGCAAAAAUGCAGGGGUCUAAAACUGAGCGGAUAACCUCUCUAUGG RNA 2: GGGAAUGGAUCCACAUCUACGAAUUCGUACAAUAGAGAAGUUAUCCGCUCACCGAGAUCGGAAGAGCACACGU",35 ± 4
10,"target 1 insC 3' of 18,insU 3' of 9 (mixed) RNA 1: CACCCGUGCAAAAAUGCAGGGGUCUAAAACUGAGCGGAUAACCUCUCUAUGG RNA 2: GGGAAUGGAUCCACAUCUACGAAUUCGUACCAUACGAGAGGUUAUUCCGCUCACCGAGAUCGGAAGAGCACACGU",51 ± 11
11,"target 1 U8C,C21A (mixed) RNA 1: CACCCGUGCAAAAAUGCAGGGGUCUAAAACUGAGCGGAUAACCUCUCUAUGG RNA 2: GGGAAUGGAUCCACAUCUACGAAUUCGUACAAUAGAGAGGUUACCCGCUCACCGAGAUCGGAAGAGCACACGU",44 ± 5
12,"target 1 G5C,G15A (mixed) RNA 1: CACCCGUGCAAAAAUGCAGGGGUCUAAAACUGAGCGGAUAACCUCUCUAUGG RNA 2: GGGAAUGGAUCCACAUCUACGAAUUCGUACCAUAGAAAGGUUAUCCCCUCACCGAGAUCGGAAGAGCACACGU",19.9 ± 1.8
13,"target 1 C2G,G5A (mixed) RNA 1: CACCCGUGCAAAAAUGCAGGGGUCUAAAACUGAGCGGAUAACCUCUCUAUGG RNA 2: GGGAAUGGAUCCACAUCUACGAAUUCGUACCAUAGAGAGGUUAUCCACUGACCGAGAUCGGAAGAGCACACGU",35 ± 5
14,"target 1 insU 3' of 9,insC 3' of 3 (mixed) RNA 1: CACCCGUGCAAAAAUGCAGGGGUCUAAAACUGAGCGGAUAACCUCUCUAUGG RNA 2: GGGAAUGGAUCCACAUCUACGAAUUCGUACCAUAGAGAGGUUAUUCCGCUCCACCGAGAUCGGAAGAGCACACGU",16.3 ± 1.1
15,"target 1 A1C,C4U (mixed) RNA 1: CACCCGUGCAAAAAUGCAGGGGUCUAAAACUGAGCGGAUAACCUCUCUAUGG RNA 2: GGGAAUGGAUCCACAUCUACGAAUUCGUACCAUAGAGAGGUUAUCCGUUCCCCGAGAUCGGAAGAGCACACGU",9.8 ± 1.2
16,"target 1 insC 3' of 14,insC 3' of 14 (mixed) RNA 1: CACCCGUGCAAAAAUGCAGGGGUCUAAAACUGAGCGGAUAACCUCUCUAUGG RNA 2: GGGAAUGGAUCCACAUCUACGAAUUCGUACCAUAGAGACCGGUUAUCCGCUCACCGAGAUCGGAAGAGCACACGU",42 ± 4
17,"target 1 insA 3' of 15,insA 3' of 8 (mixed) RNA 1: CACCCGUGCAAAAAUGCAGGGGUCUAAAACUGAGCGGAUAACCUCUCUAUGG RNA 2: GGGAAUGGAUCCACAUCUACGAAUUCGUACCAUAGAGAAGGUUAUACCGCUCACCGAGAUCGGAAGAGCACACGU",7.4 ± 0.4
18,target 1 complement block 2-8 (mixed) RNA 1: CACCCGUGCAAAAAUGCAGGGGUCUAAAACUGAGCGGAUAACCUCUCUAUGG RNA 2: GGGAAUGGAUCCACAUCUACGAAUUCGUACCAUAGAGAGGUUAAGGCGAGACCGAGAUCGGAAGAGCACACGU,10.5 ± 0.5
19,"target 1 G5A,A9U (mixed) RNA 1: CACCCGUGCAAAAAUGCAGGGGUCUAAAACUGAGCGGAUAACCUCUCUAUGG RNA 2: GGGAAUGGAUCCACAUCUACGAAUUCGUACCAUAGAGAGGUUUUCCACUCACCGAGAUCGGAAGAGCACACGU",29.7 ± 1.8
20,"target 1 insA 3' of 22,insA 3' of 10 (mixed) RNA 1: CACCCGUGCAAAAAUGCAGGGGUCUAAAACUGAGCGGAUAACCUCUCUAUGG RNA 2: GGGAAUGGAUCCACAUCUACGAAUUCGUACACAUAGAGAGGUUAAUCCGCUCACCGAGAUCGGAAGAGCACACGU",14.6 ± 1
21,"target 1 insC 3' of 18,insA 3' of 3 (mixed) RNA 1: CACCCGUGCAAAAAUGCAGGGGUCUAAAACUGAGCGGAUAACCUCUCUAUGG RNA 2: GGGAAUGGAUCCACAUCUACGAAUUCGUACCAUACGAGAGGUUAUCCGCUACACCGAGAUCGGAAGAGCACACGU",23.9 ± 1.2
22,"target 1 insC 3' of 9,insC 3' of 9 (mixed) RNA 1: CACCCGUGCAAAAAUGCAGGGGUCUAAAACUGAGCGGAUAACCUCUCUAUGG RNA 2: GGGAAUGGAUCCACAUCUACGAAUUCGUACCAUAGAGAGGUUACCUCCGCUCACCGAGAUCGGAAGAGCACACGU",10.7 ± 0.7
23,target 1 complement block 4-11 (mixed) RNA 1: CACCCGUGCAAAAAUGCAGGGGUCUAAAACUGAGCGGAUAACCUCUCUAUGG RNA 2: GGGAAUGGAUCCACAUCUACGAAUUCGUACCAUAGAGAGGAAUAGGCGUCACCGAGAUCGGAAGAGCACACGU,12.4 ± 0.6
24,"target 1 A1C,A9G (mixed) RNA 1: CACCCGUGCAAAAAUGCAGGGGUCUAAAACUGAGCGGAUAACCUCUCUAUGG RNA 2: GGGAAUGGAUCCACAUCUACGAAUUCGUACCAUAGAGAGGUUGUCCGCUCCCCGAGAUCGGAAGAGCACACGU",21.2 ± 3.4
25,"target 1 C7A,U10A (mixed) RNA 1: CACCCGUGCAAAAAUGCAGGGGUCUAAAACUGAGCGGAUAACCUCUCUAUGG RNA 2: GGGAAUGGAUCCACAUCUACGAAUUCGUACCAUAGAGAGGUAAUACGCUCACCGAGAUCGGAAGAGCACACGU",8.48 ± 0.31
26,"target 1 U3G,A18G (mixed) RNA 1: CACCCGUGCAAAAAUGCAGGGGUCUAAAACUGAGCGGAUAACCUCUCUAUGG RNA 2: GGGAAUGGAUCCACAUCUACGAAUUCGUACCAUGGAGAGGUUAUCCGCGCACCGAGAUCGGAAGAGCACACGU",87 ± 23
27,"target 1 U11G,G17U (mixed) RNA 1: CACCCGUGCAAAAAUGCAGGGGUCUAAAACUGAGCGGAUAACCUCUCUAUGG RNA 2: GGGAAUGGAUCCACAUCUACGAAUUCGUACCAUAUAGAGGGUAUCCGCUCACCGAGAUCGGAAGAGCACACGU",47 ± 5
28,"target 1 C7U,U19G (mixed) RNA 1: CACCCGUGCAAAAAUGCAGGGGUCUAAAACUGAGCGGAUAACCUCUCUAUGG RNA 2: GGGAAUGGAUCCACAUCUACGAAUUCGUACCAGAGAGAGGUUAUUCGCUCACCGAGAUCGGAAGAGCACACGU",57 ± 7
